# From IntAct's records for PubMed 31015422
# B1: Tumor necrosis factor alpha-induced protein 3 (Homo sapiens), P21580 (parent)
# chain: MAEQVLPQALYLSNMRKAVKIRERTPEDIFKPTNGIIHHFKTMHRYTLEMFRTCQFCPQFREIIHKALIDRNIQATLESQKKLNWCREVRKLVALKTNGDGNCLMHATSQYMWGVQDTDLVLRKALFSTLKETDTRNFKFRWQLESLKSQEFVETGLCYDTRNWNDEWDNLIKMASTDTPMARSGLQYNSLEEIHIFVLCNILRRPIIVISDKMLRSLESGSNFAPLKVGGIYLPLHWPAQECYRYPIVLGYDSHHFVPLVTLKDSGPEIRAVPLVNRDRGRFEDLKVHFLTDPENEMKEKLLKEYLMVIEIPVQGWDHGTTHLINAAKLDEANLPKEINLVDDYFELVQHEYKKWQENSEQGRREGHAQNPMEPSVPQLSLMDVKCETPNCPFFMSVNTQPLCHECSERRQKNQNKLPKLNSKPGPEGLPGMALGASRGEAYEPLAWNPEESTGGPHSAPPTAPSPFLFSETTAMKCRSPGCPFTLNVQHNGFCERCHNARQLHASHAPDHTRHLDPGKCQACLQDVTRTFNGICSTCFKRTTAEASSSLSTSLPPSCHQRSKSDPSRLVRSPSPHSCHRAGNDAPAGCLSQAARTPGDRTGTSKCRKAGCVYFGTPENKGFCTLCFIEYRENKHFAAASGKVSPTASRFQNTIPCLGRECGTLGSTMFEGYCQKCFIEAQNQRFHEAKRTEEQLRSSQRRDVPRTTQSTSRPKCARASCKNILACRSEELCMECQHPNQRMGPGAHRGEPAPEDPPKQRCRAPACDHFGNAKCNGYCNECFQFKQMYG
# Variants of: B1
# Conditions: with ATG16L1, Q676U5-1
# Chain of ATG16L1, Q676U5-1 (Q676U5 whole entry): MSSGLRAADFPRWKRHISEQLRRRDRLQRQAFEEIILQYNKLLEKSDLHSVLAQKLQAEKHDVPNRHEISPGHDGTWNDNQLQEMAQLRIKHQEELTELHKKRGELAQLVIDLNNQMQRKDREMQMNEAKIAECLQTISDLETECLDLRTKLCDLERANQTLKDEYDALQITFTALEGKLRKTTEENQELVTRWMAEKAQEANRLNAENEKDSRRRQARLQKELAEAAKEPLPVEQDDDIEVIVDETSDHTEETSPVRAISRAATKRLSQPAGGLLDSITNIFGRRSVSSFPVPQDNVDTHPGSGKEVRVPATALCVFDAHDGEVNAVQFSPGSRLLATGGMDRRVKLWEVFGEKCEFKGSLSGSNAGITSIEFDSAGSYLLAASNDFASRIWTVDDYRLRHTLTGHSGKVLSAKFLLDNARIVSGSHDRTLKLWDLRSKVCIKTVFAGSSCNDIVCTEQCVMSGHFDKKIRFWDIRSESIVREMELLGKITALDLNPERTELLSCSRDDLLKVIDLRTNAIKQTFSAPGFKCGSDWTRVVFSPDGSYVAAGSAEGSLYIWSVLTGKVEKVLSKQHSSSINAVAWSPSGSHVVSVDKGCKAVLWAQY
row,Variant,effect of a mutation on the interaction
1,A125V,with no effect
2,F257A;L260A,with no effect
3,Y188A;L191A,with no effect
4,W168A;L171A,with no effect
5,F127A;L130A,with no effect
6,F127C,with no effect
7,F224A;L227A,with no effect
8,Y233A;L236A,with no effect
9,Y246A;V249A,with no effect
